Assays:
Experiment in all cases: EMSA
[1] = target: MyoD Δ1-121 (activation, C/H and basic regions deleted) (Mus musculus, UniProt P10085 122-318, del1-121)
[2] = target: MyoD Δ102-114 (UniProt P10085 1-318, del102-114)
[3] = target: MyoD R111C (Mus musculus, UniProt P10085 1-318, R111C)
[4] = target: MyoD Δ3-56 (activation region deleted) (Mus musculus, UniProt P10085 1-318, del3-56)
[5] = target: MyoD ΔR3 (Mus musculus, UniProt P10085 1-318, del119-121)
[6] = target: MyoD ΔR1R2R3 (Mus musculus, UniProt P10085 1-318, del102-104;del110-112;del119-121)
[7] = target: MyoD Δ1-93 (activation and C/H regions deleted) (Mus musculus, UniProt P10085 94-318, del1-93)
[8] = target: MyoD full-length (Mus musculus, UniProt P10085 1-318)
[9] = target: MyoD bHLH domain (UniProt P10085 102-162)
[10] = target: MyoD ΔR2R3 (Mus musculus, UniProt P10085 1-318, del110-112;del119-121)
[11] = target: MyoD ΔR1R3 (Mus musculus, UniProt P10085 1-318, del102-104;del119-121)

B1: E-box DNA (dsDNA)
DNA 1: TCGATCCCCCAACACCTGCTGCCTGA
DNA 2: TCAGGCAGCAGGTGTTGGGGGATCGA
binding result [1]: no binding
binding result [2]: no binding
binding result [3]: no binding
binding result [4]: binds
binding result [5]: no binding
binding result [6]: no binding
binding result [7]: binds
binding result [8]: binds
binding result [9]: binds
binding result [10]: no binding
binding result [11]: no binding

Reference: paper PMC2175354
